# Measurements published in the supplement of paper PMC9112550, “Optimization of the antimicrobial peptide Bac7 by deep mutational scanning” (BMC Biology, 2022).
# System: Escherichia coli TOP10
# Assay: shrunken log2 fold change of peptide-encoding DNA abundance (4.5 h post-induction vs induction); higher = less antimicrobial activity (less host growth inhibition)
# Settings: time post-induction: 4.5 h; library: site-saturation at positions 5, 18, 19, 20
# 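Note: peptides expressed intracellularly from a pBAD plasmid library in pooled LB shake-flask culture, induced with 0.3% L-arabinose, DNA abundance read by NGS, three biological replicates, DESeq2 with apeglm shrinkage.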
row,Sequence,shrunken log2 fold change
1,RRIRRRPPRLPRPRPRPMIFPRP,-0.241
2,RRIRRRPPRLPRPRPRPMINPRP,-0.157
3,RRIRRRPPRLPRPRPRPMKWPRP,0.016
4,RRIRRRPPRLPRPRPRPMNTPRP,-0.171
5,RRIRRRPPRLPRPRPRPMPYPRP,-0.0473
6,RRIRRRPPRLPRPRPRPMQMPRP,0.54
7,RRIRRRPPRLPRPRPRPMRFPRP,1.1
8,RRIRRRPPRLPRPRPRPMVWPRP,0.686
9,RRIRRRPPRLPRPRPRPMVYPRP,0.119
10,RRIRRRPPRLPRPRPRPMWAPRP,0.161
11,RRIRRRPPRLPRPRPRPMWCPRP,0.135
12,RRIRRRPPRLPRPRPRPMWFPRP,-0.0232
13,RRIRRRPPRLPRPRPRPMYNPRP,-0.137
14,RRIRRRPPRLPRPRPRPNAFPRP,-0.0721
15,RRIRRRPPRLPRPRPRPNCQPRP,0.0764
16,RRIRRRPPRLPRPRPRPNETPRP,-0.0619
17,RRIRRRPPRLPRPRPRPNHNPRP,-0.329
18,RRIRRRPPRLPRPRPRPNIRPRP,-0.144
19,RRIRRRPPRLPRPRPRPNKIPRP,0.755
20,RRIRRRPPRLPRPRPRPNKLPRP,-0.138
21,RRIRRRPPRLPRPRPRPNLCPRP,0.00272
22,RRIRRRPPRLPRPRPRPNLKPRP,-0.0818
23,RRIRRRPPRLPRPRPRPNLNPRP,-0.0389
24,RRIRRRPPRLPRPRPRPNMFPRP,-0.047
25,RRIRRRPPRLPRPRPRPNMMPRP,-0.245

row,Sequence,shrunken log2 fold change
1,RRIRRRPPRLPRPRPRPNPDPRP,0.314
2,RRIRRRPPRLPRPRPRPNPVPRP,0.123
3,RRIRRRPPRLPRPRPRPNQLPRP,-0.178
4,RRIRRRPPRLPRPRPRPNQSPRP,-0.13
5,RRIRRRPPRLPRPRPRPNRAPRP,3.1
6,RRIRRRPPRLPRPRPRPNTCPRP,0.0105
7,RRIRRRPPRLPRPRPRPNWPPRP,0.118
8,RRIRRRPPRLPRPRPRPNWSPRP,-0.0147
9,RRIRRRPPRLPRPRPRPNYMPRP,-0.605
10,RRIRRRPPRLPRPRPRPPDPPRP,0.707
11,RRIRRRPPRLPRPRPRPPEGPRP,0.657
12,RRIRRRPPRLPRPRPRPPETPRP,0.831
13,RRIRRRPPRLPRPRPRPPFHPRP,0.321
14,RRIRRRPPRLPRPRPRPPFIPRP,0.299
15,RRIRRRPPRLPRPRPRPPHQPRP,1.32
16,RRIRRRPPRLPRPRPRPPICPRP,0.152
17,RRIRRRPPRLPRPRPRPPISPRP,0.0255
18,RRIRRRPPRLPRPRPRPPIWPRP,2.59
19,RRIRRRPPRLPRPRPRPPKIPRP,0.403
20,RRIRRRPPRLPRPRPRPPKQPRP,0.459
21,RRIRRRPPRLPRPRPRPPLHPRP,0.695
22,RRIRRRPPRLPRPRPRPPMWPRP,0.548
23,RRIRRRPPRLPRPRPRPPPQPRP,1.27
24,RRIRRRPPRLPRPRPRPPQFPRP,0.864
25,RRIRRRPPRLPRPRPRPPQRPRP,1.64

row,Sequence,shrunken log2 fold change
1,RRIRRRPPRLPRPRPRPPRDPRP,1.48
2,RRIRRRPPRLPRPRPRPPRGPRP,0.911
3,RRIRRRPPRLPRPRPRPPRYPRP,0.978
4,RRIRRRPPRLPRPRPRPPSAPRP,0.626
5,RRIRRRPPRLPRPRPRPPSNPRP,0.0633
6,RRIRRRPPRLPRPRPRPPSTPRP,0.585
7,RRIRRRPPRLPRPRPRPPTGPRP,0.625
8,RRIRRRPPRLPRPRPRPPTHPRP,0.622
9,RRIRRRPPRLPRPRPRPPVLPRP,0.18
10,RRIRRRPPRLPRPRPRPPVMPRP,0.403
11,RRIRRRPPRLPRPRPRPPWIPRP,0.365
12,RRIRRRPPRLPRPRPRPPYCPRP,0.256
13,RRIRRRPPRLPRPRPRPQAMPRP,0.0414
14,RRIRRRPPRLPRPRPRPQAPPRP,0.236
15,RRIRRRPPRLPRPRPRPQCFPRP,0.212
16,RRIRRRPPRLPRPRPRPQDHPRP,-0.0159
17,RRIRRRPPRLPRPRPRPQEWPRP,-0.0466
18,RRIRRRPPRLPRPRPRPQFDPRP,0.107
19,RRIRRRPPRLPRPRPRPQFVPRP,0.153
20,RRIRRRPPRLPRPRPRPQHQPRP,0.246
21,RRIRRRPPRLPRPRPRPQIMPRP,-0.137
22,RRIRRRPPRLPRPRPRPQIPPRP,0.00964
23,RRIRRRPPRLPRPRPRPQLFPRP,2.21
24,RRIRRRPPRLPRPRPRPQLKPRP,0.0988
25,RRIRRRPPRLPRPRPRPQLTPRP,0.122

row,Sequence,shrunken log2 fold change
1,RRIRRRPPRLPRPRPRPQNEPRP,0.0801
2,RRIRRRPPRLPRPRPRPQNMPRP,-0.472
3,RRIRRRPPRLPRPRPRPQPEPRP,0.0541
4,RRIRRRPPRLPRPRPRPQPYPRP,-0.142
5,RRIRRRPPRLPRPRPRPQQAPRP,0.115
6,RRIRRRPPRLPRPRPRPQQYPRP,-0.0784
7,RRIRRRPPRLPRPRPRPQRVPRP,0.155
8,RRIRRRPPRLPRPRPRPQSEPRP,0.0256
9,RRIRRRPPRLPRPRPRPQSPPRP,0.281
10,RRIRRRPPRLPRPRPRPQVTPRP,-0.0275
11,RRIRRRPPRLPRPRPRPQYGPRP,-0.409
12,RRIRRRPPRLPRPRPRPQYPPRP,-0.444
13,RRIRRRPPRLPRPRPRPQYVPRP,-0.265
14,RRIRRRPPRLPRPRPRPRAVPRP,0.427
15,RRIRRRPPRLPRPRPRPREFPRP,0.419
16,RRIRRRPPRLPRPRPRPREHPRP,0.673
17,RRIRRRPPRLPRPRPRPREKPRP,0.0627
18,RRIRRRPPRLPRPRPRPREVPRP,0.442
19,RRIRRRPPRLPRPRPRPRFEPRP,0.582
20,RRIRRRPPRLPRPRPRPRFFPRP,0.507
21,RRIRRRPPRLPRPRPRPRFKPRP,0.0822
22,RRIRRRPPRLPRPRPRPRGAPRP,0.8
23,RRIRRRPPRLPRPRPRPRGRPRP,0.319
24,RRIRRRPPRLPRPRPRPRGWPRP,0.979
25,RRIRRRPPRLPRPRPRPRHFPRP,-0.156

row,Sequence,shrunken log2 fold change
1,RRIRRRPPRLPRPRPRPRIHPRP,-0.113
2,RRIRRRPPRLPRPRPRPRLKPRP,0.231
3,RRIRRRPPRLPRPRPRPRLVPRP,0.527
4,RRIRRRPPRLPRPRPRPRMQPRP,0.372
5,RRIRRRPPRLPRPRPRPRNMPRP,0.112
6,RRIRRRPPRLPRPRPRPRPIPRP,0.945
7,RRIRRRPPRLPRPRPRPRRLPRP,0.54
8,RRIRRRPPRLPRPRPRPRRYPRP,0.0835
9,RRIRRRPPRLPRPRPRPRSLPRP,-0.0226
10,RRIRRRPPRLPRPRPRPRSRPRP,0.345
11,RRIRRRPPRLPRPRPRPRSTPRP,0.36
12,RRIRRRPPRLPRPRPRPRWCPRP,0.0597
13,RRIRRRPPRLPRPRPRPSAYPRP,0.104
14,RRIRRRPPRLPRPRPRPSCDPRP,0.177
15,RRIRRRPPRLPRPRPRPSCSPRP,-0.163
16,RRIRRRPPRLPRPRPRPSELPRP,0.0695
17,RRIRRRPPRLPRPRPRPSGFPRP,0.0452
18,RRIRRRPPRLPRPRPRPSIAPRP,0.238
19,RRIRRRPPRLPRPRPRPSIHPRP,-0.337
20,RRIRRRPPRLPRPRPRPSILPRP,0.197
21,RRIRRRPPRLPRPRPRPSKGPRP,-0.518
22,RRIRRRPPRLPRPRPRPSKLPRP,-0.0224
23,RRIRRRPPRLPRPRPRPSKYPRP,-0.483
24,RRIRRRPPRLPRPRPRPSLEPRP,0.232
25,RRIRRRPPRLPRPRPRPSMTPRP,0.315

row,Sequence,shrunken log2 fold change
1,RRIRRRPPRLPRPRPRPSNGPRP,-0.296
2,RRIRRRPPRLPRPRPRPSNKPRP,-0.101
3,RRIRRRPPRLPRPRPRPSNLPRP,0.112
4,RRIRRRPPRLPRPRPRPSPNPRP,0.396
5,RRIRRRPPRLPRPRPRPSPYPRP,0.0987
6,RRIRRRPPRLPRPRPRPSQEPRP,-0.225
7,RRIRRRPPRLPRPRPRPSSLPRP,-0.134
8,RRIRRRPPRLPRPRPRPSSQPRP,-0.25
9,RRIRRRPPRLPRPRPRPSTLPRP,-0.174
10,RRIRRRPPRLPRPRPRPSTRPRP,0.194
11,RRIRRRPPRLPRPRPRPSVHPRP,-0.278
12,RRIRRRPPRLPRPRPRPSVNPRP,-0.308
13,RRIRRRPPRLPRPRPRPSWKPRP,0.16
14,RRIRRRPPRLPRPRPRPSYSPRP,-0.319
15,RRIRRRPPRLPRPRPRPTAEPRP,-0.0162
16,RRIRRRPPRLPRPRPRPTAHPRP,1.51
17,RRIRRRPPRLPRPRPRPTARPRP,0.494
18,RRIRRRPPRLPRPRPRPTCIPRP,-0.123
19,RRIRRRPPRLPRPRPRPTCQPRP,0.775
20,RRIRRRPPRLPRPRPRPTDLPRP,-0.162
21,RRIRRRPPRLPRPRPRPTDVPRP,-0.0348
22,RRIRRRPPRLPRPRPRPTEPPRP,0.4
23,RRIRRRPPRLPRPRPRPTEVPRP,0.238
24,RRIRRRPPRLPRPRPRPTGTPRP,1.07
25,RRIRRRPPRLPRPRPRPTHAPRP,1.13
